Experimental data reported in patent US20230212319A1, “NOVEL ANTIGEN BINDING DOMAINS AND SYNTHETIC ANTIGEN RECEPTORS INCORPORATING THE SAME” (University of Southern California, priority 2020, published 2023).

B1: 22182 (protein)
chain: MALPVTALLLPLALLLHAARPACEVQLVESGGGVVQPGRSLRLSCAASGFSFSGYGMHWVRQAPGKGLEWVAYISYDGSNKYYADSVKGRFTISRDNSKNTLYLQMNSLRAEDTAVYYCAKDPAWGLRLGESSSYDFDYWGQGTMVTVSSGTGGGGSGGGGSGGGGSEFDIQMTQSPSSLSASVGDRVTITCKASDHINNWLAWYQQKPGQAPKLLIYGATTLETGVPSRFSGSGSGTDYTLTISSLQPEDFATYYCQQSWNTPWTFGQGTKLEIKRLEDLKNVFPPEVAVFEPSEAEISHTQKATLVCLATGFYPDHVELSWWVNGKEVHSGVCTDPQPLKEQPALNDSRYCLSSRLRVSATFWQNPRNHFRCQVQFYGLSENDEWTQDRAKPVTQIVSAEAWGRADCGFTSESYQQGVLSATILYEILLGKATLYAVLVSALVLMAMVKRKDSRGRAKRSGSGATNFSLLKQAGDVEENPGPTSMDWIWRILFLVGAATGAHSFEQVQLQQPGAELVKPGASVKMSCKASGYAFSSYWINWMKQKPGQGLEWIGQIYPGDGDTNYNGKFKGRATLTADTSSSTAYMQLSSLTSEDSAVYFCARSITTVVGCAMDYWGQGTSVTVSSTRIQNPDPAVYQLRDSKSSDKSVCLFTDFDSQTNVSQSKDSDVYITDKCVLDMRSMDFKSNSAVAWSNKSDFACANAFNNSIIPEDTFFPSPESSCDVKLVEKSFETDTNLNFQNLSVIGFRILLLKVAGFNLLMTLRLWSSRAKRSGSGVKQTLNFDLLKLAGDVESNPGPSRGHMTEYKPTVRLATRDDVPRAVRTLAAAFADYPATRHTVDPDRHIERVTELQELFLTRVGLDIGKVWVADDGAAVAVWTTPESVEAGAVFAEIGPRMAELSGSRLAAQQQMEGLLAPHRPKEPAWFLATVGVSPDHQGKGLGSAVVLPGVEAAERAGVPAFLETSAPRNLPFYERLGFTVTADVEVPEGPRTWCMTRKPGA
B2: 22103 (protein)
chain: MALPVTALLLPLALLLHAARPDIQMTQSPSSLSASVGDRVTITCKASDHINNWLAWYQQKPGQAPKLLIYGATTLETGVPSRFSGSGSGTDYTLTISSLQPEDFATYYCQQSWNTPWTFGQGTKLEIKRLEGQPKANPTVTLFPPSSEELQANKATLVCLISDFYPGAVTVAWKADGSPVKAGVETTKPSKQSNNKYAASSYLSLTPEQWKSHRSYSCQVTHEGSTVEKTVAPTECSPIKTDVITMDPKDNCSKDANDTLLLQLTNTSAYYMYLLLLLKSVVYFAIITCCLLRRTAFCCNGEKSRAKRSGSGATNFSLLKQAGDVEENPGPTSMDWIWRILFLVGAATGAHSFEQVQLQQPGAELVKPGASVKMSCKASGYAFSSYWINWMKQKPGQGLEWIGQIYPGDGDTNYNGKFKGRATLTADTSSSTAYMQLSSLTSEDSAVYFCARSITTVVGCAMDYWGQGTSVTVSSTRASTKGPSVFPLAPSSKSTSGGTAALGCLVKDYFPEPVTVSWNSGALTSGVHTFPAVLQSSGLYSLSSVVTVPSSSLGTQTYICNVNHKPSNTKVDKRVEPKSCEVKTDSTDHVKPKETENTKQPSKSCHKPKAIVHTEKVNMMSLTVLGLRMLFAKTVAVNFLLTAKLFFLRAKRSGSGVKQTLNFDLLKLAGDVESNPGPSRGHMTEYKPTVRLATRDDVPRAVRTLAAAFADYPATRHTVDPDRHIERVTELQELFLTRVGLDIGKVWVADDGAAVAVWTTPESVEAGAVFAEIGPRMAELSGSRLAAQQQMEGLLAPHRPKEPAWFLATVGVSPDHQGKGLGSAVVLPGVEAAERAGVPAFLETSAPRNLPFYERLGFTVTADVEVPEGPRTWCMTRKPGA
B3: 22155 (protein)
chain: MALPVTALLLPLALLLHAARPACEVQLLESGGGLIQPGGSLRLSCAASGFTFSSHAMTWVRQAPGKGLEWVSAISGSGDYTHYADSVKGRFTISRDNSKNTVYLQMNSLRAEDSAVYYCAKDEDGGSLLGHRGQGTLVTVSSGTGGGGSGGGGSGGGGSEFSYVLTQPPSVSVAPGQTARITCGGNNIGGKSVHWYQQPPGQAPVVVVYDDSDRPSGIPERFSGSNSGNTATLTISRVEAGDEAVYYCQVWDSSSDHVVFGGGTKLTVLLEADVSPKPTIFLPSIAETKLQKAGTYLCLLEKFFPDVIKIHWQEKKSNTILGSQEGNTMKTNDTYMKFSWLTVPEKSLDKEHRCIVRHENNKNGVDQEIIFPPIKTDVITMDPKDNCSKDANDTLLLQLTNTSAYYMYLLLLLKSVVYFAIITCCLLRRTAFCCNGEKSRAKRSGSGATNFSLLKQAGDVEENPGPTSMDWIWRILFLVGAATGAHSGPQVQLQESGGGLAQAGGSLRLSCAASGRTFSMGWFRQAPGKEREFVAAITYSGGSPYYASSVRGRFTISRDNAKNTVYLQMNSLKPEDTAVYYCAANPTYGSDWNAENWGQGTQVTVSSGSGGGGSGGGGSGGGGSFEQLQLQESGPGLVKPSETLSLTCTVSGGSISSSSYFWGWIRQPPGKGLEWIGSIYYSGITYYNPSLKSRVTISVDTSKNQFSLKLSSVTAADTAVYYCARHDGAVAGLFDYWGQGTLVTVSSATRPHTKPSVFVMKNGTNVACLVKEFYPKDIRINLVSSKKITEFDPAIVISPSGKYNAVKLGKYEDSNSVTCSVQHDNKTVHSTDFEVKTDSTDHVKPKETENTKQPSKSCHKPKAIVHTEKVNMMSLTVLGLRMLFAKTVAVNFLLTAKLFFLRAKRSGSGVKQTLNFDLLKLAGDVESNPGPSRGHMTEYKPTVRLATRDDVPRAVRTLAAAFADYPATRHTVDPDRHIERVTELQELFLTRVGLDIGKVWVADDGAAVAVWTTPESVEAGAVFAEIGPRMAELSGSRLAAQQQMEGLLAPHRPKEPAWFLATVGVSPDHQGKGLGSAVVLPGVEAAERAGVPAFLETSAPRNLPFYERLGFTVTADVEVPEGPRTWCMTRKPGA
B4: 22117 (protein)
chain: MALPVTALLLPLALLLHAARPQLQLQESGPGLVKPSETLSLTCTVSGDSISSGDYYWGWIRQPPGKGLEWIGHIYYSGVTYYNPSLKSRVTISVDTSRNQFSLKLSSVTAADTAVYYCTREDSSNWRSRGQGTLVTVSSLEIQNPDPAVYQLRDSKSSDKSVCLFTDFDSQTNVSQSKDSDVYITDKCVLDMRSMDFKSNSAVAWSNKSDFACANAFNNSIIPEDTFFPSSDVPCDVKLVEKSFETDTNLNFQNLSVIGFRILLLKVAGFNLLMTLRLWSSRAKRSGSGVKQTLNFDLLKLAGDVESNPGPTSTMALPVTALLLPLALLLHAARPQLQLQESGPGLVKPSETLSLTCTVSGDSISSGDYYWGWIRQPPGKGLEWIGHIYYSGVTYYNPSLKSRVTISVDTSRNQFSLKLSSVTAADTAVYYCTREDSSNWRSRGQGTLVTVSSLESGGGGSFEQVQLQQPGAELVKPGASVKMSCKASGYAFSSYWINWMKQKPGQGLEWIGQIYPGDGDTNYNGKFKGRATLTADTSSSTAYMQLSSLTSEDSAVYFCARSITTVVGCAMDYWGQGTSVTVSSTREDLKNVFPPEVAVFEPSKAEIAHTQKATLVCLATGFYPDHVELSWWVNGKEVHSGVCTDPQPLKEQPALNDSRYCLSSRLRVSATFWQNPRNHFRCQVQFYGLSENDEWTQDRAKPVTQIVSAEAWGRADCGITSASYHQGVLSATILYEILLGKATLYAVLVSALVLMAMVKRKDSRGRAKRSGSGATNFSLLKQAGDVEENPGPSRGHMTEYKPTVRLATRDDVPRAVRTLAAAFADYPATRHTVDPDRHIERVTELQELFLTRVGLDIGKVWVADDGAAVAVWTTPESVEAGAVFAEIGPRMAELSGSRLAAQQQMEGLLAPHRPKEPAWFLATVGVSPDHQGKGLGSAVVLPGVEAAERAGVPAFLETSAPRNLPFYERLGFTVTADVEVPEGPRTWCMTRKPGA

Each molecule was assayed on RAJI cells (assay: JNG assay, co-culture with RAJI cells). Details: JNG cells expressing construct, co-culture with Raji.
Assay type: cell-based
Outline: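 Read-out is NFAT-driven GFP measured by flow cytometry after ~4–18 h co-culture of SAR-expressing JNG cells with target cells (E:T about 1:2). SARs were introduced by lentiviral spinfection and selected with puromycin or blasticidin when possible; scores (+/- to 5+ ≈ 5–50% GFP+) are relative to parental JNG cells.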

Molecule	NFAT-GFP ASSAY: Raji
B1	5+ (refer to approximately 5%, 10%, 20%, 30%, 40% and 50% GFP positive cells)
B2	4+ (refer to approximately 5%, 10%, 20%, 30%, 40% and 50% GFP positive cells)
B3	2+ (refer to approximately 5%, 10%, 20%, 30%, 40% and 50% GFP positive cells)
B4	3+ (refer to approximately 5%, 10%, 20%, 30%, 40% and 50% GFP positive cells)
